Earlier results, collected in paper PMC8657489, “Identification of VEGF Signaling Inhibition-Induced Glomerular Injury in Rats through Site-Specific Urinary Biomarkers” (International Journal of Molecular Sciences, 2021).

Tests used:
patients [1] = details: human, in vivo
[2] = test system: glomerular endothelial cells and podocytes; design: method as in PMID 17726104; details: rats
patients [3] = test system: patients; design: method as in PMID 24574832; details: patients receiving Sunitinib

Question: Which “patients who developed proteinuria” value (patients [1]) does the source give for “Bevacizumab: monoclonal antibody against VEGF-A, also known as Avastin” here?
Answer: 21~64%

Question: And the “proteinuria considered severe cases (grade 3–4)” value (patients [1])?
Answer: 2.1–11.9%

Question: With `COc1cc2c(Nc3ccc(Br)cc3F)ncnc2cc1OCC1CCN(C)CC1` [vandetanib] as the compound, how does the glomerular morphological changes [2] read?
Answer: not only the loss of fenestration in glomerular endothelial cells, but also morphological changes in podocytes

Question: Which renal adverse effects (patients [3]) does the source give for `CCN(CC)CCNC(=O)c1c(C)[nH]c(/C=C2\C(=O)Nc3ccc(F)cc32)c1C` [Sunitinib] here?
Answer: proteinuria and renal insufficiency were reported
